T1: HLA-DR DRB1*0101 (human)
T1 chain 1: not shown
T1 chain 2: not shown

T2: HLA-DR DRB1*0401 (human)
T2 chain 1: not shown
T2 chain 2: not shown

T3: HLA-DR DRB1*1302 (human)
T3 chain 1: not shown
T3 chain 2: not shown

T4: HLA-DR DRB1*0701 (human)
T4 chain 1: not shown
T4 chain 2: not shown

T5: HLA-DR DRB5*0101 (human)
T5 chain 1: not shown
T5 chain 2: not shown

T6: HLA-DR DRB1*0405 (human)
T6 chain 1: not shown
T6 chain 2: not shown

T7: HLA-DR DRB1*0404 (human)
T7 chain 1: not shown
T7 chain 2: not shown

T8: HLA-DR DRB1*1101 (human)
T8 chain 1: not shown
T8 chain 2: not shown

T9: HLA-DR DRB4*0101 (human)
T9 chain 1: not shown
T9 chain 2: not shown


Assays:
Conditions in all cases: remark: other sources report otherwise
HLA-DR DRB1*0101 (human) [1] = target: T1, HLA-DR DRB1*0101 (human); assay: radioligand inhibition, purified HLA-DR
HLA-DR DRB1*0401 (human) = target: T2, HLA-DR DRB1*0401 (human); assay: radioligand inhibition, purified HLA-DR
HLA-DR DRB1*1302 (human) = target: T3, HLA-DR DRB1*1302 (human); assay: radioligand inhibition, purified HLA-DR
HLA-DR DRB1*0701 (human) = target: T4, HLA-DR DRB1*0701 (human); assay: radioligand inhibition, purified HLA-DR
HLA-DR DRB5*0101 (human) [2] = target: T5, HLA-DR DRB5*0101 (human); assay: radioligand inhibition, purified HLA-DR
HLA-DR DRB1*0405 (human) = target: T6, HLA-DR DRB1*0405 (human); assay: radioligand inhibition, purified HLA-DR
HLA-DR DRB1*0404 (human) = target: T7, HLA-DR DRB1*0404 (human); assay: radioligand inhibition, purified HLA-DR
HLA-DR DRB1*1101 (human) = target: T8, HLA-DR DRB1*1101 (human); assay: radioligand inhibition, purified HLA-DR
HLA-DR DRB4*0101 (human) = target: T9, HLA-DR DRB4*0101 (human); assay: radioligand inhibition, purified HLA-DR
HLA-DR DRB1*0101 (human) [3] = target: T1, HLA-DR DRB1*0101 (human); assay: radiolabeled-peptide inhibition, purified HLA-DR
HLA-DR DRB5*0101 (human) [4] = target: T5, HLA-DR DRB5*0101 (human); assay: radiolabeled-peptide inhibition, purified HLA-DR

IC50 (HLA-DR DRB1*0101 (human) [1])	IC50 (HLA-DR DRB1*0401 (human))	IC50 (HLA-DR DRB1*1302 (human))	IC50 (HLA-DR DRB1*0701 (human))	IC50 (HLA-DR DRB5*0101 (human) [2])	IC50 (HLA-DR DRB1*0405 (human))	IC50 (HLA-DR DRB1*0404 (human))	IC50 (HLA-DR DRB1*1101 (human))	IC50 (HLA-DR DRB4*0101 (human))	IC50 (HLA-DR DRB1*0101 (human) [3])	IC50 (HLA-DR DRB5*0101 (human) [4])	Binder
2610 nM	18 nM	–	–	–	–	–	–	–	–	–	IEALLESSLRQAQQN [Cyclin D1.251]
–	422 nM	5040 nM	4940 nM	–	–	–	–	–	–	–	RHLYQGCQVVQGNLE [Her/neu.47]
7.7 nM	–	–	18 nM	4000 nM	110 nM	29 nM	–	–	–	–	ERGPLEHLYSLHIPN [Peptide 9019.0190]
2810 nM	75 nM	592 nM	1560 nM	15100 nM	3570 nM	11 nM	3320 nM	–	–	–	SITVSASGTSPGLSA [CEA.671 peptide 9919.0143]
1460 nM	–	286 nM	–	–	–	–	–	–	–	–	DANLLNDRVLRAMLK [Cyclin D1.19 peptide 9019.0146]
11 nM	40 nM	343 nM	2490 nM	1880 nM	760 nM	32 nM	692 nM	–	–	–	TEILKGGVLIQRNPQ [Her2/neu.146]
–	754 nM	3220 nM	–	2810 nM	–	–	–	441 nM	–	–	ICELHCPALVTYNTD [Her2/neu.263]
2600 nM	2740 nM	–	1970 nM	–	–	–	–	–	–	–	GCQVVQGNLELTYLP [Her/neu.52]
44 nM	–	921 nM	–	36 nM	1550 nM	29 nM	–	–	–	–	VCGIQNSVSANRSDP [CEA.570 peptide 9012.0135]
40 nM	580 nM	37 nM	–	14100 nM	7820 nM	–	–	42 nM	–	–	SSYLSGANLNLSCHS [CEA.603 peptide 9012.0137]
3650 nM	–	5070 nM	–	–	–	–	–	–	–	–	NPQLCYQDTILWKDI [Her2/neu.158]
44 nM	–	–	–	–	–	–	–	–	–	–	VAAVQGLNLRSPNNF [Cyclin D1.209]
992 nM	–	6060 nM	–	3000 nM	13200 nM	675 nM	–	–	–	–	TTPVTGASPGGLREL [Her2/neu.126]
682 nM	181 nM	–	31 nM	–	942 nM	–	–	2700 nM	–	–	INGIPQQHTQVLFIA [CEA.629 peptide 9019.0139]
164 nM	–	–	–	–	–	13100 nM	–	4700 nM	–	–	GARMPCAELVREPGC [Peptide 9019.0181]
–	717 nM	–	–	–	955 nM	–	–	–	–	–	ICTIDVYMIMVKCWM [Peptide 1622.04]
6160 nM	–	–	–	–	–	–	–	–	–	–	PEYVNQPDVRPQPPS [Peptide 9019.0100]
1280 nM	–	5770 nM	16000 nM	–	–	–	–	–	–	–	AEVLFRCPPCTPERL [Peptide 9019.0178]
384 nM	–	5640 nM	4450 nM	384 nM	–	–	–	12100 nM	–	–	TVGIMIGVLVGVALI [CEA.688 peptide 9019.05]
–	–	–	–	–	–	–	–	–	17 nM	94 nM	LREVRAVTSANIQEF [9019.0046]
149 nM	–	3990 nM	4460 nM	–	3860 nM	–	6810 nM	572 nM	–	–	AKGLQSLPTHDPSPL [Peptide 9019.0098]
